Experimental data published in patent publication US12467929.

Key:
[1] = target: recombinant UBE3A protein (Homo sapiens (Human)) (UniProt Q05086); test: 2-step Simoa; capture GTX; UBE3A 1 ng/ml
[2] = target: recombinant UBE3A protein (Homo sapiens (Human)) (UniProt Q05086); test: 3-step Simoa; capture GTX; UBE3A 1 ng/ml
[3] = target: recombinant UBE3A protein (Homo sapiens (Human)) (UniProt Q05086); test: 2-step Simoa; capture GTX; UBE3A 10 ng/ml
[4] = target: recombinant UBE3A protein (Homo sapiens (Human)) (UniProt Q05086); test: 3-step Simoa; capture GTX; UBE3A 10 ng/ml
[5] = target: recombinant UBE3A protein (Homo sapiens (Human)) (UniProt Q05086); test: 2-step Simoa; capture Novus; UBE3A 1 ng/ml
[6] = target: recombinant UBE3A protein (Homo sapiens (Human)) (UniProt Q05086); test: 3-step Simoa; capture GTX; UBE3A 0.1 ng/ml
[7] = target: recombinant UBE3A protein (Homo sapiens (Human)) (UniProt Q05086); test: 3-step Simoa; capture Novus; UBE3A 1 ng/ml
[8] = target: recombinant UBE3A protein (Homo sapiens (Human)) (UniProt Q05086); test: 2-step Simoa; capture MS 2F6; UBE3A 1 ng/ml
[9] = target: recombinant UBE3A protein (Homo sapiens (Human)) (UniProt Q05086); test: 2-step Simoa; capture Novus; UBE3A 10 ng/ml
[10] = target: recombinant UBE3A protein (Homo sapiens (Human)) (UniProt Q05086); test: 3-step Simoa; capture GTX; UBE3A 0.01 ng/ml
[11] = target: recombinant UBE3A protein (Homo sapiens (Human)) (UniProt Q05086); test: 3-step Simoa; capture MS 2F6; UBE3A 1 ng/ml
[12] = target: recombinant UBE3A protein (Homo sapiens (Human)) (UniProt Q05086); test: 3-step Simoa; capture Novus; UBE3A 10 ng/ml
[13] = target: recombinant UBE3A protein (Homo sapiens (Human)) (UniProt Q05086); test: 2-step Simoa; capture GTX; UBE3A 0.01 ng/ml
[14] = target: recombinant UBE3A protein (Homo sapiens (Human)) (UniProt Q05086); test: 2-step Simoa; capture MS 3E5; UBE3A 1 ng/ml
[15] = target: recombinant UBE3A protein (Homo sapiens (Human)) (UniProt Q05086); test: 2-step Simoa; capture MS 2F6; UBE3A 10 ng/ml
[16] = target: recombinant UBE3A protein (Homo sapiens (Human)) (UniProt Q05086); test: 2-step Simoa; capture Novus; UBE3A 0.1 ng/ml
[17] = target: recombinant UBE3A protein (Homo sapiens (Human)) (UniProt Q05086); test: 3-step Simoa; capture MS 2F6; UBE3A 10 ng/ml
[18] = target: recombinant UBE3A protein (Homo sapiens (Human)) (UniProt Q05086); test: 3-step Simoa; capture Novus; UBE3A 0.1 ng/ml
[19] = target: recombinant UBE3A protein (Homo sapiens (Human)) (UniProt Q05086); test: 2-step Simoa; capture MS 2F6; UBE3A 0.1 ng/ml
[20] = target: recombinant UBE3A protein (Homo sapiens (Human)) (UniProt Q05086); test: 2-step Simoa; capture Novus; UBE3A 0.01 ng/ml
[21] = target: recombinant UBE3A protein (Homo sapiens (Human)) (UniProt Q05086); test: 3-step Simoa; capture MS 2F6; UBE3A 0.1 ng/ml
[22] = target: recombinant UBE3A protein (Homo sapiens (Human)) (UniProt Q05086); test: 3-step Simoa; capture Novus; UBE3A 0.01 ng/ml
[23] = target: recombinant UBE3A protein (Homo sapiens (Human)) (UniProt Q05086); test: 2-step Simoa; capture MS 2F6; UBE3A 0.01 ng/ml

UniProt Q05086, sequence (Q05086 whole entry): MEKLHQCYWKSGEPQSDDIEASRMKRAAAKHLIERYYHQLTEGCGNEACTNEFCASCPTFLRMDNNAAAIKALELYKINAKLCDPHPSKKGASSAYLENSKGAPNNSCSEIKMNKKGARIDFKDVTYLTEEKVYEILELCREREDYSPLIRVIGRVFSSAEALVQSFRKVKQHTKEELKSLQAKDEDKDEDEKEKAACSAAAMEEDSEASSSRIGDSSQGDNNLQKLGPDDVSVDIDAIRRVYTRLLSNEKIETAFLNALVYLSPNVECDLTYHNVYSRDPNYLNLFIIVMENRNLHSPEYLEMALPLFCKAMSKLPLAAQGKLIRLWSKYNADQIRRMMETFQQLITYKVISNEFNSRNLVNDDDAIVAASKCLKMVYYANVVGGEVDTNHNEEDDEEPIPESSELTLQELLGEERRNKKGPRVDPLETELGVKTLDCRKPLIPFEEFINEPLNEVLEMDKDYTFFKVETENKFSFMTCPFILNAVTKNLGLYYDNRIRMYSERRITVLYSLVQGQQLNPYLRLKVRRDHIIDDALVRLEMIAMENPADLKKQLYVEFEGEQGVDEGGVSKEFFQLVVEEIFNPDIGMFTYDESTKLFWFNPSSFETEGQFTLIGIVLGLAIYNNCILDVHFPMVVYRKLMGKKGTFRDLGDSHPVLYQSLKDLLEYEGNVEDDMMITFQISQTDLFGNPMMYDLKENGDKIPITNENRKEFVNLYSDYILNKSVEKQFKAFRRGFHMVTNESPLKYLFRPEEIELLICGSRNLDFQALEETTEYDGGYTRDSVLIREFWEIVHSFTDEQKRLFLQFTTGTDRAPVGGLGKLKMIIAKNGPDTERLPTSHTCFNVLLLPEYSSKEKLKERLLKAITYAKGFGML

## GTX101092 (GeneTex) (antibody)
[1]
  AEB1: 0.0504
  AEB2: 0.053
  Ave AEB: 0.0517
  Signal to Background: 1.02
[2]
  AEB1: 0.0243
  AEB2: 0.0204
  Ave AEB: 0.0224
  Signal to Background: 1.05
[3]
  AEB1: 0.0957
  AEB2: 0.0942
  Ave AEB: 0.095
  Signal to Background: 1.88
[4]
  AEB1: 0.0337
  AEB2: 0.034
  Ave AEB: 0.0339
  Signal to Background: 1.59
[5]
  AEB1: 0.0503
  AEB2: 0.0488
  Ave AEB: 0.0496
  Signal to Background: 0.99
[6]
  AEB1: 0.0192
  AEB2: 0.0198
  Ave AEB: 0.0195
  Signal to Background: 0.91
[7]
  AEB1: 0.0264
  AEB2: 0.0248
  Ave AEB: 0.0256
  Signal to Background: 1.14
[8]
  AEB1: 0.0418
  AEB2: 0.0409
  Ave AEB: 0.0413
  Signal to Background: 0.62
[9]
  AEB1: 0.0616
  AEB2: 0.0585
  Ave AEB: 0.0601
  Signal to Background: 1.2
[10]
  AEB1: 0.019
  AEB2: 0.021
  Ave AEB: 0.02
  Signal to Background: 0.94
[11]
  AEB1: 0.0178
  AEB2: 0.0198
  Ave AEB: 0.0188
  Signal to Background: 1.01
[12]
  AEB1: 0.0258
  AEB2: 0.0245
  Ave AEB: 0.0252
  Signal to Background: 1.12
[13]
  AEB1: 0.0483
  AEB2: 0.0494
  Ave AEB: 0.0489
  Signal to Background: 0.97
[14]
  AEB1: 0.159
  AEB2: 0.165
  Ave AEB: 0.162
  Signal to Background: 1.15
[15]
  AEB1: 0.0412
  AEB2: 0.0418
  Ave AEB: 0.0415
  Signal to Background: 0.62
[16]
  AEB1: 0.0516
  AEB2: 0.0515
  Ave AEB: 0.0516
  Signal to Background: 1.03
[17]
  AEB1: 0.0251
  AEB2: 0.0292
  Ave AEB: 0.0271
  Signal to Background: 1.45
[18]
  AEB1: 0.0223
  AEB2: 0.0228
  Ave AEB: 0.0225
  Signal to Background: 1
[19]
  AEB1: 0.0426
  AEB2: 0.0425
  Ave AEB: 0.0426
  Signal to Background: 0.64
[20]
  AEB1: 0.0531
  AEB2: 0.0522
  Ave AEB: 0.0527
  Signal to Background: 1.05
[21]
  AEB1: 0.017
  AEB2: 0.0184
  Ave AEB: 0.0177
  Signal to Background: 0.95
[22]
  AEB1: 0.0217
  AEB2: 0.0245
  Ave AEB: 0.0231
  Signal to Background: 1.03
[23]
  AEB1: 0.0481
  AEB2: 0.0445
  Ave AEB: 0.0463
  Signal to Background: 0.69

## anti-UBE3A antibody 3E5 (SAB1404508-100 ug, Millipore-Sigma)
[1]
  AEB1: 0.152
  AEB2: 0.157
  Ave AEB: 0.154
[2]
  AEB2: 0.0774
  Ave AEB: 0.0774
  Signal to Background: 9.06
[3]
  AEB1: 0.724
  Ave AEB: 0.724
[4]
  AEB1: 0.404
  AEB2: 0.425
  Ave AEB: 0.414
  Signal to Background: 48.5
[5]
  AEB1: 0.0412
  AEB2: 0.0426
  Ave AEB: 0.0419
  Signal to Background: 1.68
[6]
  AEB1: 0.0204
  AEB2: 0.0181
  Ave AEB: 0.0192
  Signal to Background: 2.25
[7]
  AEB1: 0.0276
  AEB2: 0.0233
  Ave AEB: 0.0254
  Signal to Background: 2.68
[8]
  AEB1: 0.0424
  AEB2: 0.0451
  Ave AEB: 0.0437
  Signal to Background: 3.9
[9]
  AEB1: 0.174
  AEB2: 0.164
  Ave AEB: 0.169
  Signal to Background: 6.77
[10]
  AEB1: 0.0084
  AEB2: 0.0082
  Ave AEB: 0.0083
  Signal to Background: 0.972
[11]
  AEB1: 0.0206
  AEB2: 0.0228
  Ave AEB: 0.0217
  Signal to Background: 5.52
[12]
  AEB1: 0.159
  AEB2: 0.154
  Ave AEB: 0.156
  Signal to Background: 16.5
[13]
  AEB1: 0.0162
  AEB2: 0.0168
  Ave AEB: 0.0165
[15]
  AEB1: 0.334
  AEB2: 0.338
  Ave AEB: 0.336
  Signal to Background: 30
[16]
  AEB1: 0.0237
  AEB2: 0.0272
  Ave AEB: 0.0255
  Signal to Background: 1.02
[17]
  AEB1: 0.177
  AEB2: 0.188
  Ave AEB: 0.183
  Signal to Background: 46.6
[18]
  AEB1: 0.0142
  AEB2: 0.0119
  Ave AEB: 0.013
  Signal to Background: 1.38
[19]
  AEB1: 0.0169
  AEB2: 0.0141
  Ave AEB: 0.0155
  Signal to Background: 1.38
[20]
  AEB1: 0.0302
  AEB2: 0.0257
  Ave AEB: 0.028
  Signal to Background: 1.12
[21]
  AEB1: 0.0063
  AEB2: 0.0064
  Ave AEB: 0.0063
  Signal to Background: 1.62
[22]
  AEB1: 0.0105
  AEB2: 0.0102
  Ave AEB: 0.0104
  Signal to Background: 1.09
[23]
  AEB1: 0.0113
  AEB2: 0.0141
  Ave AEB: 0.0127
  Signal to Background: 1.13
